Key:
[1] = system: human alpha-synuclein (wild-type, recombinant)
[2] = system: alpha-synuclein E46K familial mutant
[3] = system: alpha-synuclein A53T familial mutant
beta synuclein = beta synuclein (UniProt Q16143)
[4] = system: alpha-synuclein A30P familial mutant

Sequence of Polo like kinase 2 (PLK2) (chain): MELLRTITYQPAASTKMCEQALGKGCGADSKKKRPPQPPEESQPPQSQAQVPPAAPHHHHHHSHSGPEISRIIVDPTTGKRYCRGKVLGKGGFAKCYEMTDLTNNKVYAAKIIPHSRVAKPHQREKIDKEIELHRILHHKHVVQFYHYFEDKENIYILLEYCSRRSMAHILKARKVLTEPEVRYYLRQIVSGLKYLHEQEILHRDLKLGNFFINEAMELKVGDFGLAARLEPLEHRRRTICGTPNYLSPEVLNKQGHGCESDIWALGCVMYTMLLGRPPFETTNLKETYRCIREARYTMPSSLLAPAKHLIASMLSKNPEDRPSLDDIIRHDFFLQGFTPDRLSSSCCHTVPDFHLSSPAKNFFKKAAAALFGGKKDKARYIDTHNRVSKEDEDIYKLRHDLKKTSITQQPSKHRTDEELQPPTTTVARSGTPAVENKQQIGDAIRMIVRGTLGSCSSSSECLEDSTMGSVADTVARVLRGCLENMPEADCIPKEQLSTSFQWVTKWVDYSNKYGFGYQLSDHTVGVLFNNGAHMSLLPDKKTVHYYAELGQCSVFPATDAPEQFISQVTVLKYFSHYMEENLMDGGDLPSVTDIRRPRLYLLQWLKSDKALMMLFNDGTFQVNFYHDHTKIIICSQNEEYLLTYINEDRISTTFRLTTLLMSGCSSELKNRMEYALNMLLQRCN
Sequence of beta synuclein (Q16143 whole entry): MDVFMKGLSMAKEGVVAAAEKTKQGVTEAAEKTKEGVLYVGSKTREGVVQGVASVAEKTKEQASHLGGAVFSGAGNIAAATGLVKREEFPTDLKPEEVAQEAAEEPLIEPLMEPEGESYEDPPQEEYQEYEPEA

Substance | S87 phosphorylation, immunoblot (pAb ELADW-110), kinase:rAS 1:200 molar [1] | S129 phosphorylation in vitro, kinases normalized by activity units [1] | S129 phosphorylation, immunoblot (mAb 11A5), kinase:rAS 1:200 molar [1] | S129 phosphorylation, immunoblot (mAb 11A5), rank of signal [1] | phospho ser-129 in vitro, kinases normalized for molarity [1] | in vitro phosphorylation, autoradiography [2] | in vitro phosphorylation, autoradiography [3] | in vitro phosphorylation, autoradiography (beta synuclein) | Fold Change in Percent Synuclein Phosphorylation (ELISA, HEK-293 overexpression) [1] | Proportion of total synuclein that is phoshorylated at ser-129 (ELISA, HEK-293 overexpression) [1] | in vitro biochemical assay, phosphorylation of synuclein [1] | in vitro kinase reaction, phosphorylation of alpha-synuclein at serine 129 [1] | in vitro phosphorylation, autoradiography [1] | phosphorylation of alpha-synuclein at S129 on co-expression in bacteria, mass spectrometry [1] | in vitro phosphorylation, autoradiography [4]
casein kinase I (CKI) | A signal was detected only with CKI phosphorylation | CKI gave a modest signal | Prominent signals came from GRK6, CKI, CKII and PLK2 | CKI>GRK6>PLK2>GRK4>GRK5>GRK2 | roughly equivalent levels of phospho ser-129 between CKI, GRK6 and PLK2 |  |  |  |  |  |  |  |  |  | 
Polo like kinase 2 (PLK2) |  |  | Prominent signals came from GRK6, CKI, CKII and PLK2 | CKI>GRK6>PLK2>GRK4>GRK5>GRK2 | roughly equivalent levels of phospho ser-129 between CKI, GRK6 and PLK2 | the mutant alpha-synucleins were phosphorylated more at a given concentration (especially at lower concentrations) than WT | the mutant alpha-synucleins were phosphorylated more at a given concentration (especially at lower concentrations) than WT | minimally against beta synuclein | 21.2 fold | 42.3% | PLK2 and PLK3 having extremely robust phosphorylation of synuclein | capable of phosphorylating alpha-synuclein specifically at serine 129 and did not phosphorylate serine 87 in vitro | PLK2 was found to be more active against wild-type alpha synuclein than beta synuclein | more than 95% phosphorylated | the mutant alpha-synucleins were phosphorylated more at a given concentration (especially at lower concentrations) than WT
casein kinase 2 (CKII) |  | CKII was not detectable | Prominent signals came from GRK6, CKI, CKII and PLK2 |  |  |  |  |  |  |  |  |  |  |  | 

From patent US20110207796
